According to PMC5416870, “Lee Hyunah 1 2”:

Molecular target: SOX (alkaline exonuclease) (Kaposi's sarcoma-associated herpesvirus …, UniProt P88925 1-486)
Assay: fluorescence polarization anisotropy; FPA with 3'FAM oligonucleotides, single site binding fit (GraphPad PRISM6); buffer, pH and temperature as in cited Bagneris et al., not in material
Conditions: protein: recombinant

B1: GFP51 (structured_RNA)
RNA: UACGGCAAGCUGACCCUGAAGUUCAUCUGCACCACCGGCAAGCUGCCCGUG
For B1, the Kd (label: 3'FAM, stem loop with UGAAG motif) was 5 µM.

B2: HBB58 (structured_RNA)
RNA: AGGUGAAGGCUCAUGGCAAGAAAGUGCUCGGUGCCUUUAGUGAUGGCCUGGCUCACCU
B2 was tested, and the Kd (label: 3'FAM, bulge) was 42 µM.

B3: K2-31 (structured_RNA)
RNA: GAUCUGAGCCAUUGAAGCAAGCUUCCAGAUC
In the case of B3, the Kd (label: 3'FAM, hairpin) is reported as 49 µM.

B4: dsUN51 (dsRNA)
RNA 1: GGCCAUCCUGUUUUUUUCCCUUUUUUUUUUUCUUUUUUUUUUUUUUUUUUU
RNA 2: AAAAAAAAAAAAAAAAAAAAAAGAAAAAAAAAAAGGGAAAAAAACUGGAUGGCC
For B4, the Kd (label: 3'FAM (strand 1), duplex, as printed has one U-U mismatch and second strand about 3 nt longer (5' overhang)) was about 73 µM.
